In patent US20110294748A1 (Janssen / Centocor, published 2011):

B1: PG-peptide fusion of clone 17 (protein G IgG domain with peptide SEQ ID NO: 13 at its C-terminus) (other)
chain: YKLILNGKTLKGETTTEAVDAATAEKVFKQYANDNGVDGEWTYDDATKTFTVTEDDIDEFLHQLHNLVNNVH
notes: also called PG-peptide fusion clone 17; fusion protein with peptide clone 17
B2: peptide-Alkaline phosphatase-His6 fusion protein of clone 14 (other)
chain: VECDTPSITFSPGLEALFWNTCSPTPEMPVLENRAAQGDITTPGGARRLTGDQTAALRDSLSDKPAKNIILLIGDGMGDSEITAARNYAEGAGGFFKGIDALPLTGQYTHYALNKKTGKPDYVTDSAASATAWSTGVKTYNGALGVDIHEKDHPTILEMAKAAGLATGNVSTAELQGATPAALVAHVTSRKCYGPSATSEKCPGNALEKGGKGSITEQLLNARADVTLGGGAKTFAETATAGEWQGKTLREQAQTRGYQLVSDAASLNSVTEANQQKPLLGLFADGNMPVRWLGPKATYHGNIDKPAVTCTPNPQRNDSVPTLAQMTDKAIELLSKNEKGFFLQVEGASIDKQNHAANPCGQIGETVDLDEAVQRALEFAKKEGNTLVIVTADHAHASQIVAPDTKAPGLTQALNTKDGAVMVMSYGNSEEDSQEHTGSQLRIAAYGPHAANVVGLTDQTDLFYTMKAALGLKVPGGSGGGSGGGSGGGSGTPEMPVLENRAAQGDITTPGGARRLTGDQTAALRDSLSDKPAKNIILLIGDGMGDSEITAARNYAEGAGGFFKGIDALPLTGQYTHYALNKKTGKPDYVTDSAASATAWSTGVKTYNGALGVDIHEKDHPTILEMAKAAGLATGNVSTAELQGATPAALVAHVTSRKCYGPSATSEKCPGNALEKGGKGSITEQLLNARADVTLGGGAKTFAETATAGEWQGKTLREQAQTRGYQLVSDAASLNSVTEANQQKPLLGLFADGNMPVRWLGPKATYHGNIDKPAVTCTPNPQRNDSVPTLAQMTDKAIELLSKNEKGFFLQVEGASIDKQNHAANPCGQIGETVDLDEAVQRALEFAKKEGNTLVIVTADHAHASQIVAPDTKAPGLTQALNTKDGAVMVMSYGNSEEDSQEHTGSQLRIAAYGPHAANVVGLTDQTDLFYTMKAALGLKVPGNSHHHHHH
notes: Tested as bacterial culture supernatant; also called peptide-AP fusion clone 14
B3: peptide-Alkaline phosphatase-His6 fusion protein of clone 17 (other)
chain: DDIDEFLHQLHNLVNNVHTPEMPVLENRAAQGDITTPGGARRLTGDQTAALRDSLSDKPAKNIILLIGDGMGDSEITAARNYAEGAGGFFKGIDALPLTGQYTHYALNKKTGKPDYVTDSAASATAWSTGVKTYNGALGVDIHEKDHPTILEMAKAAGLATGNVSTAELQGATPAALVAHVTSRKCYGPSATSEKCPGNALEKGGKGSITEQLLNARADVTLGGGAKTFAETATAGEWQGKTLREQAQTRGYQLVSDAASLNSVTEANQQKPLLGLFADGNMPVRWLGPKATYHGNIDKPAVTCTPNPQRNDSVPTLAQMTDKAIELLSKNEKGFFLQVEGASIDKQNHAANPCGQIGETVDLDEAVQRALEFAKKEGNTLVIVTADHAHASQIVAPDTKAPGLTQALNTKDGAVMVMSYGNSEEDSQEHTGSQLRIAAYGPHAANVVGLTDQTDLFYTMKAALGLKVPGGSGGGSGGGSGGGSGTPEMPVLENRAAQGDITTPGGARRLTGDQTAALRDSLSDKPAKNIILLIGDGMGDSEITAARNYAEGAGGFFKGIDALPLTGQYTHYALNKKTGKPDYVTDSAASATAWSTGVKTYNGALGVDIHEKDHPTILEMAKAAGLATGNVSTAELQGATPAALVAHVTSRKCYGPSATSEKCPGNALEKGGKGSITEQLLNARADVTLGGGAKTFAETATAGEWQGKTLREQAQTRGYQLVSDAASLNSVTEANQQKPLLGLFADGNMPVRWLGPKATYHGNIDKPAVTCTPNPQRNDSVPTLAQMTDKAIELLSKNEKGFFLQVEGASIDKQNHAANPCGQIGETVDLDEAVQRALEFAKKEGNTLVIVTADHAHASQIVAPDTKAPGLTQALNTKDGAVMVMSYGNSEEDSQEHTGSQLRIAAYGPHAANVVGLTDQTDLFYTMKAALGLKVPGNSHHHHHH
notes: Tested as bacterial culture supernatant; also called peptide-AP fusion clone 17
B4: peptide-Alkaline phosphatase-His6 fusion protein of clone 16 (other)
chain: AGCPSPMPPVDPGFYSAIVQLCRETPEMPVLENRAAQGDITTPGGARRLTGDQTAALRDSLSDKPAKNIILLIGDGMGDSEITAARNYAEGAGGFFKGIDALPLTGQYTHYALNKKTGKPDYVTDSAASATAWSTGVKTYNGALGVDIHEKDHPTILEMAKAAGLATGNVSTAELQGATPAALVAHVTSRKCYGPSATSEKCPGNALEKGGKGSITEQLLNARADVTLGGGAKTFAETATAGEWQGKTLREQAQTRGYQLVSDAASLNSVTEANQQKPLLGLFADGNMPVRWLGPKATYHGNIDKPAVTCTPNPQRNDSVPTLAQMTDKAIELLSKNEKGFFLQVEGASIDKQNHAANPCGQIGETVDLDEAVQRALEFAKKEGNTLVIVTADHAHASQIVAPDTKAPGLTQALNTKDGAVMVMSYGNSEEDSQEHTGSQLRIAAYGPHAANVVGLTDQTDLFYTMKAALGLKVPGGSGGGSGGGSGGGSGTPEMPVLENRAAQGDITTPGGARRLTGDQTAALRDSLSDKPAKNIILLIGDGMGDSEITAARNYAEGAGGFFKGIDALPLTGQYTHYALNKKTGKPDYVTDSAASATAWSTGVKTYNGALGVDIHEKDHPTILEMAKAAGLATGNVSTAELQGATPAALVAHVTSRKCYGPSATSEKCPGNALEKGGKGSITEQLLNARADVTLGGGAKTFAETATAGEWQGKTLREQAQTRGYQLVSDAASLNSVTEANQQKPLLGLFADGNMPVRWLGPKATYHGNIDKPAVTCTPNPQRNDSVPTLAQMTDKAIELLSKNEKGFFLQVEGASIDKQNHAANPCGQIGETVDLDEAVQRALEFAKKEGNTLVIVTADHAHASQIVAPDTKAPGLTQALNTKDGAVMVMSYGNSEEDSQEHTGSQLRIAAYGPHAANVVGLTDQTDLFYTMKAALGLKVPGNSHHHHHH
notes: Tested as bacterial culture supernatant; also called peptide-AP fusion clone 16

Tests used:
[1] = molecular target: T1, soluble IGF1R (sIGF1R), extracellular domain of human insulin-like growth factor 1 receptor, carboxy-terminal … (human, UniProt P08069 31-932); assay: ELISA, serially diluted PG-peptide fusion on coated sIGF1R
T1 construct: Bought from R&D Systems; GenBank NP-000866 is printed for the whole receptor; also called IFG1R
Description: Relative binding affinities of the PG-peptide fusions for sIGF1R were measured using ELISA. The Kds were determined using GraphPad Prism 4 software with a one site binding equation. 100 μl of 2 μg/ml sIGF1R(R&D Systems, Minneapolis, Minn.) in Dulbecco's Phosphate Buffer Saline (DPBS (−/−)) was coated onto a 96 well Black Maxisorp plates (Nunc, Rochester, N.Y.) overnight at 4° C. The plates were washed with TBST and the wells blocked with 200 μl/well Starting Block T20 (TBS) (Pierce, Rockford, Ill.) for 1 hr, room temperature with 300 rpm shaking. 75 μl/well of purified, serially diluted PG-peptide fusions, starting concentration 40 μM, was added into the wells and incubated for 1 h, room temperature with 300 rpm mixing; the volume was brought up to 100 μl with Starting Block T20. The plates were washed 3× with TBST and then probed with 100 μl/well Peroxidase labeled-Rabbit antibody (1:5000) (Rockland, Gilbertsville, Pa.), washed, and the signal was detected using 100 μl/well POD substrate (Roche, Indianapolis, Ind.). Chemiluminescence was detected using a Molecular Devices M5 plate reader.
The fusion protein with peptide clone 17 was unique in its binding profile in that the binding curve was bellshaped. […]

[2] = molecular target: T1, soluble IGF1R (sIGF1R), extracellular …; assay: ELISA, culture supernatant on 2 µg/ml coated sIGF1R, Attophos detection
Description: The binding of purified peptide-AP fusion proteins to sIGF1R was assessed using ELISA against immobilized sIGF1R. Briefly, bacteria transformed with each peptide-AP fusion expression vector were grown overnight and the following day the cultures were clarified by centrifugation at 4,500 rpm, 4° C. The supernatants were collected and 75 μl of each supernatant was assayed for binding to 2 μg/ml sIGF1R immobilized on ELISA plates. The bound peptides were detected using the Attophos Substrate (Roche, Indianapolis, Ind.) following the manufacturer's recommendation and read using a Molecular Devices M5 plate reader.

Binder | binding result [1] | binding result [2]
B1 | binds | 
B2 |  | binds
B3 |  | binds
B4 |  | binds
